Reference: article PMC5360189 (Molecular cell, 2016)

B1: urea carboxylase (guanidine carboxylase) (Oleomonas sagaranensis) (protein)
chain: MFKKILIANRGEIAARVIKTARKMGIATVAVHSEADRFTLPVLAADEAICLGPAPAKESYLRAEAIVQACIDTGAEAVHPGYGFLSENAGFAEALAAKGIRFIGPRPEHLRDFGLKHTARALAEAAGVPLLPGTGILLSAEEALAAAHEIGYPVMLKSTAGGGGIGMSLCHDASELQARFEAVQRMASSSFGDARVYIERFVSTARHVEVQIFGDGKGNVVALGERDCSLQRRNQKVVEETPAPGLSPELRARLHAAAVALGKAVAYESAGTVEFIYDVARGDFSFLEVNTRLQVEHPVTESVFGVDLVEWMIRQAAGELLLPAQGSLVPRGAAIEVRLYAENPQANFRPQTGRLTEVAFPDDIRVDTWVATGTEVTPFYDPMLAKVIVTGADRPAAIAALSDALAKTKVWGIETNLAYLRAIAASDVFTSGAVSTAALGQFVFTAPTIEVIVAGAQTSVQDWPGRLGLWDVGVPPSGPFDDRSFRLANRILGNAEGAAGLECTLSGPTLKFHGDALIALAGAEMPAALDGVAVPMLTAIPVKAGQTLSLGQIKGAGQRTYLAVRGGIDGPKFLGARACFSLGQFGGHATGVLKAGDTLHIAAETAGEPMPADEKPLITRDWVIGVHYGPHGAPDFFQDADIDDLFAATYEVHFNSARTGVRLIGPKPRWARADGGEAGLHPSNIHDNAYAIGAIDFTGDMPIILGPDGPSLGGFVCPAVIARDELWKAGQLKPGDKVRFVPHGMAAPQVITSKDIGTPILGTIDGGPVPVVYRRAGDDYLLVEYGPMVLDIALRLRIHLLAQAVREARLPAIIDLTPGIRSLQIHYDSRVLKTATLVAALREIEAGLPPAEAVKVPSRIVHLPLSWNDPSIQLAARKYQELVRPNAPWCPSNIEFIRRINGLGSVDDVQNIIFDASYLVLGLGDVYLGAPVATPVDPRHRLVTTKYNPARTWTPENAVGIGGAYMCIYGMEGPGGYQLFGRTVQMWNAWRTTPVFTPGHPWLLRFFDQIRFFPVSEQELIEAREAFPHGRYPVRIEETTFDYAQHAAFLAAERPAIEAAKARQQTAFEVERQDWKARGLDSFVVEDGPAASDADVPEGQTPVEAQVTGNVWKIIAEEGTNVAAGDIVVIVESMKMEMEIRSPVAGKVTALRCQPGRTVQAGQIVALIEAA

Legend:
Clo SugE = assay type: binding, Clostridiales bacterium oral taxon 876
purified protein [1] = substrate: NC(N)=O; assay: purified protein
purified protein [2] = substrate: N=C(N)N; assay: purified protein

Molecule	Kd (Clo SugE)	Km (purified protein [1])	Km (purified protein [2])
N=C(N)N [guanidine]	~1000 µM		
B1		5200 µM	190 µM
